Earlier results as cited in article PMC3221918.

Molecular target: IL-15RαSu soluble ECD (Homo sapiens) (UniProt Q13261)
UniProt Q13261, sequence (Q13261 31-95): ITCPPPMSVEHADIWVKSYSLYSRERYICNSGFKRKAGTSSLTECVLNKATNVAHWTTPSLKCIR

- Kd: 0.1 nM
Substance: IL-15 (from UniProt P40933)
